Assay results as given in US20130230533A1 (Regeneron, published 2013).

T1: human CD48 (on primary human peripheral blood mononuclear cells) (human, UniProt P09326 27-220)
T1 sequence: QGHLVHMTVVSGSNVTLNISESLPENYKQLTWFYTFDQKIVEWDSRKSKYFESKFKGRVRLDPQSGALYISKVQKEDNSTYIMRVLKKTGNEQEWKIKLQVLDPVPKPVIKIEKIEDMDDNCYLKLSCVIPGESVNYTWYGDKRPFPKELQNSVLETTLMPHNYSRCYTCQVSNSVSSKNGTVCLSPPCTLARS

T2: monomeric monkey CD48 expressed with a tag consisting of 2 myc and one 6-His epitopes (monkey)
T2 construct: also called mfCD48-mmH; Monomeric monkey CD48-mmH
T2 chain: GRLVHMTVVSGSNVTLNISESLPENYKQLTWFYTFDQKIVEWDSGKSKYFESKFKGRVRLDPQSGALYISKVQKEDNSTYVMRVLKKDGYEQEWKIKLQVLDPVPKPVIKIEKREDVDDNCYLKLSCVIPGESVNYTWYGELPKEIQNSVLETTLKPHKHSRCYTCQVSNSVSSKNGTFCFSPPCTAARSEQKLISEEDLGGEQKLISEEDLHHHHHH

T3: biotinylated dimeric human CD48 protein expressed as a fusion with mouse IgG2a Fc (human, biotinylated)
T3 construct: also called bio-hCD48-mFc; Dimeric human CD48-mFc
T3 chain: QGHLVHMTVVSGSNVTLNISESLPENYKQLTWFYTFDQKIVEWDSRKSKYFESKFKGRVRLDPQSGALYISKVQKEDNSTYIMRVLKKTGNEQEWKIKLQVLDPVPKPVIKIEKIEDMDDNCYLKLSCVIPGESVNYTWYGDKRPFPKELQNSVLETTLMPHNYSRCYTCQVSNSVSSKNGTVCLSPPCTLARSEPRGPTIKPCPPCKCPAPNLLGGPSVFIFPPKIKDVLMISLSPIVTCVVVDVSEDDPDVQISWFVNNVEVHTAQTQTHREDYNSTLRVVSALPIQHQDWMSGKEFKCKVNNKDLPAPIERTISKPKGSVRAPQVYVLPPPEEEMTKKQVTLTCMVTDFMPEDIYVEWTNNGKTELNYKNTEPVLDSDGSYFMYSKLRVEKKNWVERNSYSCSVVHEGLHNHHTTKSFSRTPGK

B1: H2M1710N (antibody, mouse IgG2, V domains shown)
VH: QVQLVQSGADMKKPGASVRVSCKASGYTFTDYFIHWVRQAPGQGPEWMGWINPDSGATNYAQQFQGRVTMTRDTSISATYMEMSRLRSDDTAVFYCARDKDGSGWYLDDWGQGTLVTVSS
VL: EIVLTQSPATLSLSPGERATLSCRASQSVNIYLAWYQQKPGQAPRLLIYDASNRASGIPARFSGSGSGTDFTLTISSLEPEDFAVYYCQQRSNWPPSITFGQGTRLEIK
notes: Human variable domains, mouse IgG2 Fc (H2M)
B2: H2M1713N (antibody, mouse IgG2, V domains shown)
VH: QVQLVQSGAEVKKPGASVKVSCKASGHTFTNYYIHWVRQAPGQGLEWMGITNPNDGNTRYAQKFQGRISMTWDTSTSTVFMELSSLKSEDTAVYYCAGLRYWFFDLWGRGTPVTVSS
VL: DIQMTQSPSSVSASVGDRVTITCRASQDISSWLAWYQQKPGKAPNLLIFAASSLQSGVPSRFSGSGSGTDFTLTISSLQPEDFGTYYCQQTDNFPRTFGQGTKVEIN
notes: as for B1

Tests used:
[1] = molecular target: T1, human CD48 (on primary human peripheral …); assay: cell-based or functional assay
[2] = molecular target: T1, human CD48 (on primary human peripheral …); assay: cell-based or functional assay; remark: listed apart in the source
[3] = molecular target: T2, monomeric monkey CD48 expressed with a …; assay: competition ELISA; blocks mfCD48-mmH binding to coated h2B4-hFc
Experimental: (§1) The ability of human anti-CD48 monoclonal antibodies to block human CD48 and monkey CD48 binding to the human cognate ligand, human 2B4, was measured using a competition sandwich ELISA (Table 8). Constant amounts of biotinylated dimeric human CD48 protein expressed as a fusion with mouse IgG2a Fc (“bio-hCD48-mFc” [SEQ ID NO: 387]) or monomeric monkey CD48 expressed with a tag consisting of 2 myc and one 6-His epitopes (“mfCD48-mmH” [SEQ ID NO: 386]) were separately titrated with varying amounts of antibodies. These antibody-protein complexes were incubated (1 hr, 25° C.) before being transferred to microtiter plates coated with a dimeric construct expressing the human 2B4 receptor fused to a either human IgG1 (h2B4-hFc [R&D Systems, Inc., Minneapolis, Minn., Cat. No. 1039-2B]) or mouse IgG2a Fc (h2B4-mFc [SEQ ID NO: 389). After a 1 hr at 25° C. the wells were washed and bound human CD48 was detected with streptavidin conjugated with horse-radish peroxidase (HRP), and monkey CD48 was detected with an HRP conjugated anti-myc polyclonal antibody. The ELISA was developed with a TMB solution to produce a colorimetric reaction and quenched with sulfuric acid before reading absorbance at 450 nm on a Victor X5 plate reader. Sigmoidal dose response curves were fit to the data using Prism™ software. […] (Tables 8 and 9, NB=no binding observed)

[4] = molecular target: T2, monomeric monkey CD48 expressed with a …; assay: competition ELISA; blocks mfCD48-mmH binding to coated h2B4-mFc
Procedure, shortened: (§2)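 Fixed amounts of bio-hCD48-mFc or mfCD48-mmH were titrated with antibody, preincubated 1 h at 25 °C, then bound to h2B4-hFc- or h2B4-mFc-coated plates 1 h at 25 °C. Human CD48 detected with streptavidin-HRP, monkey CD48 with HRP anti-myc; TMB, A450; sigmoidal dose-response fit.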

[5] = molecular target: T3, biotinylated dimeric human CD48 protein …; assay: competition ELISA; blocks bio-hCD48-mFc binding to coated h2B4-hFc
Experimental: as §1

[6] = molecular target: T3, biotinylated dimeric human CD48 protein …; assay: competition ELISA; blocks bio-hCD48-mFc binding to coated h2B4-mFc
Procedure, shortened: as §2

Binder | Inhibition of IFN-gamma Release IC50; Donor 1 [1] [Molar] | Inhibition of IFN-gamma Release IC50; Donor 2 [1] [Molar] | Inhibition of IFN-gamma Release IC50; Donor 3 [1] [Molar] | Inhibition of IFN-gamma Release IC50; Donor 4 [1] [Molar] | Inhibition of IFN-gamma Release IC50; Donor 5 [1] [Molar] | Inhibition of IFN-gamma Release IC50; Donor 6 [2] [Molar] | Inhibition of IFN-gamma Release IC50; Donor 7 [2] [Molar] | IC50 [3] [pM] | IC50 [4] [pM] | IC50 [5] [pM] | IC50 [6] [pM]
B1 | 7.8e-10 | 1.9e-10 | 1.1e-06 | 1.5e-09 | 2.7e-10 | 5e-11 | 1.4e-10 | 370 | 260 | 580 | 490
B2 | 2.1e-11 | 7.6e-11 |  | 1.1e-10 | 1.1e-11 | 2.2e-11 | 1e-10 | 24 | 2.5 | 26 | 22
